Data reported in patent publication US9725518B2, “Antibodies that bind to Jagged 1” (Cancer Research Technology Limited, priority 2013, dated 2017).

Assays:
[1] = system: J1-induced Notch signalling; experiment: Luciferase assay, LS174T RBPJ reporter stimulated with J1 protein; assay type: cell-based, human
Protocol: FIG. 9. […] (A) The colorectal cancer cell line LS174T expressing luciferase under the control of Notch co-factor RBPJ was stimulated with mammalian cell-expressed soluble J1 proteins (NE3-Fc and NE12-Fc) or a control protein in the presence of J1 mAbs (10 μg/ml), and luciferase activity was measured. […] (C) Breast cancer MDA-MB-231 cells were cultured with J1 mAbs. The expression level of the Notch target gene HES1 was measured by qPCR using β2m as the control gene. In all experiments the γ-secretase inhibitor DBZ was used as a positive control for pan Notch inhibition and a control mAb (IgG2b or IgG1) or no treatment (NT) were negative controls.
FIG. 20. Inhibition of human Jagged 1/Notch signalling by humanised and de-immunised J1-mAbs in vitro. The colorectal cancer cell line LS174T expressing luciferase under the control of Notch co-factor RbPJ was stimulated with mammalian cell-expressed recombinant J1 protein (NE3-Fc protein, right bar for each treatment) or a control protein (left bar) in the presence of J1 mAbs (10 μg/ml), and luciferase activity was measured. The parental murine monoclonal antibody (Mo), Murine IgG1, DMSO and DBZ were used as controls.
Having established that the J1 mAbs were able to block the binding of the J1 ligand to its receptor N1 their effect on the activity of the Notch signalling pathway was investigated. The human colorectal cancer cell line LS174T, stably expressing a luciferase reporter gene under control of Notch co-factor RBPJ, was stimulated with two forms of immobilised J1 protein: N-terminus to EGF3 and N-terminus to EGF12. […] Importantly, the best two J1 mAbs (J1-65D and J1-183D) were also tested against other Notch ligands in order to verify ligand specificity.
Prior to experiment, clear bottom 96-well plates (CELLSTAR) wells were coated with either J1-ECD fragments (NE3-Fc and NE12-Fc), other Notch-ligands (J2 or DLL4; both from R&D) or control protein (mlgG2b) at the concentration of 5 μg/ml in 0.1% BSA-PBS (overnight incubation at 4° C.). LS174T colorectal cancer cells, expressing the luciferase gene under control of the Notch cofactor RbPJ, were then plated (4×10^4 cells/well) in the presence of different mAbs (10 μg/ml) or DBZ (100 nM). Luciferase activity was then quantified 24 hours later using the Bright-Glo Luciferase Assay System (Promega).

[2] = system: murine Hes1 (N1 signalling mediated via mJ1); experiment: Hes1 qPCR in B16F10 cells stably expressing murine J1; assay type: cell-based, mouse; details: mAb 10 μg/ml, DBZ 100 nM, 7 days
Protocol: FIG. 10. […] (A) Mouse melanoma B16F10 cells stably expressing murine J1 were cultured with 10 μg/ml of each J1 mAb, or an IgG1 control antibody, for 7 days with fresh mAb supplemented every 2 days. The γ-secretase inhibitor DBZ (100 nM) was used as a control for Notch inhibition. Cells were harvested, total RNA extracted and cDNA was synthesised. Murine Hes1 expression levels were detected by real-time PCR normalised against GAPDH. […] (B) Human breast cancer (MDA-MB-231) and primary endothelial cells (HUVEC) were cultured over plates coated with recombinant rat Jagged1 (rrJag1-Fc) or a control protein (mIgG1) in the presence of 10 μg/ml of J1 mAbs or isotype control Ab. 24 hours later cells were harvested, total RNA extracted and cDNA was synthesised. Expression of the human Notch-target genes HES1 and HEY2 was analysed by real-time PCR and β2-microglobulin was used as control gene. Results from one representative experiment are shown. […]
Total RNA from cell cultures/spheroids was isolated using RNeasy mini kit (Qiagen, UK) according to the manufacturer's instructions. […] Quantitative PCR (qPCR) analysis was performed in triplicate using the SYBR GreenER qPCR SuperMix Universal (Invitrogen) and Chromo4 fluorescence detector (MJ Research, USA). Relative quantification was done using the ΔΔCt method normalizing to β2-microglobulin gene or murine β-Actin expression. […]

[3] = target: T1, N1 binding to cell surface expressed hJ1 (Homo sapiens, UniProt P78504); experiment: Notch binding blocking assay (FACS): N1 EGF11-13 beads staining human J1-expressing cells; set-up: key: +: Complete blocking; X: No blocking
T1 construct: cell expressed full length human J1 (hJ1; HEK293 transfectants); expressed in transfected cells; host or cells: HEK293
Summary of the method: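 E. coli-expressed, refolded human N1 EGF11-13 (411-526), biotinylated on avidin-coated fluorescent beads, stained human J1-transfected HEK293 cells with hybridoma supernatant or purified antibody diluted in HBSS/10% FCS. Purified mAbs titrated in dilution series; bead binding read by flow cytometry.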

MDA-MB-231 spheroids = experiment: Spheroid assay (3-D growth), MDA-MB-231; assay type: cell-based, human; details: humanised variants 5 μg/ml
From the text: Similar findings were also reported for the Merck anti-N1 mAbs when tested on the LS-1034 cell line. As cell-cell contact is required to activate Notch signalling a spheroid-based 3-D growth model was used to test the ability of the J1 mAbs to block tumour growth. Furthermore, the 3-D model better mimics in vivo conditions including hypoxia and acidosis, allowing evaluation of the mAbs effect in a more realistic setting. Spheroids were generated from MDA-MB-231 breast cancer cells and the ability of different concentrations of the J1-65D mAb to inhibit their growth was evaluated.
Cells were harvested and resuspended in 2.5% Matrigel (BD)-complete DMEM medium. Cell suspension was plated on low-adherence 96-well plates (Corning) (200 μl/well) and spheroids, of approximately fixed cell number (5×10^3 cells for MDA-MB-231 and MDA-MB-468 cell lines; 2×10^3 for MCF7 cells) were then generated by spinning plates at 1800 rpm for 10 minutes. The following day, pictures of the spheroids were taken (day 1) and treatments were added (mAbs were used at 10 μg/ml [5 μg/ml for humanised antibodies] while DBZ was used at the concentration of 100 nM). In some experiments Paclitaxel (1 nM) and Doxorubicin (20 nM) were used in combination with J1-65D mAb treatment. Every 2 days pictures were taken and half of the medium was replaced with fresh one containing mAb/drug. At the end of the experiment, spheroids were either lysed for RNA extraction, were processed and paraffin-embedded for immunohistochemical analysis or were dissociated by pipetting and trypsinization into single cell suspensions for FACS analysis. Spheroid size was evaluated by image analysis using ImageJ software.

[4] = Soluble aggregates of transiently expressed antibodies; assay type: physicochemical; details: Protein A purified antibody
From the text: The protein yield of these antibodies, their levels of soluble aggregates and their binding affinity to the immunogen (J1-DE3) are illustrated in (Table 6).

[5] = humanised/chimeric mAbs 10 μg/ml, NE3-Fc, DBZ control
[6] = final antibody concentration 0.2 μg/ml
[7] = final antibody concentration 0.4 μg/ml
[8] = final antibody concentration 0.6 μg/ml
[9] = final antibody concentration 1.0 μg/ml

T1 sequence (P78504 34-1218): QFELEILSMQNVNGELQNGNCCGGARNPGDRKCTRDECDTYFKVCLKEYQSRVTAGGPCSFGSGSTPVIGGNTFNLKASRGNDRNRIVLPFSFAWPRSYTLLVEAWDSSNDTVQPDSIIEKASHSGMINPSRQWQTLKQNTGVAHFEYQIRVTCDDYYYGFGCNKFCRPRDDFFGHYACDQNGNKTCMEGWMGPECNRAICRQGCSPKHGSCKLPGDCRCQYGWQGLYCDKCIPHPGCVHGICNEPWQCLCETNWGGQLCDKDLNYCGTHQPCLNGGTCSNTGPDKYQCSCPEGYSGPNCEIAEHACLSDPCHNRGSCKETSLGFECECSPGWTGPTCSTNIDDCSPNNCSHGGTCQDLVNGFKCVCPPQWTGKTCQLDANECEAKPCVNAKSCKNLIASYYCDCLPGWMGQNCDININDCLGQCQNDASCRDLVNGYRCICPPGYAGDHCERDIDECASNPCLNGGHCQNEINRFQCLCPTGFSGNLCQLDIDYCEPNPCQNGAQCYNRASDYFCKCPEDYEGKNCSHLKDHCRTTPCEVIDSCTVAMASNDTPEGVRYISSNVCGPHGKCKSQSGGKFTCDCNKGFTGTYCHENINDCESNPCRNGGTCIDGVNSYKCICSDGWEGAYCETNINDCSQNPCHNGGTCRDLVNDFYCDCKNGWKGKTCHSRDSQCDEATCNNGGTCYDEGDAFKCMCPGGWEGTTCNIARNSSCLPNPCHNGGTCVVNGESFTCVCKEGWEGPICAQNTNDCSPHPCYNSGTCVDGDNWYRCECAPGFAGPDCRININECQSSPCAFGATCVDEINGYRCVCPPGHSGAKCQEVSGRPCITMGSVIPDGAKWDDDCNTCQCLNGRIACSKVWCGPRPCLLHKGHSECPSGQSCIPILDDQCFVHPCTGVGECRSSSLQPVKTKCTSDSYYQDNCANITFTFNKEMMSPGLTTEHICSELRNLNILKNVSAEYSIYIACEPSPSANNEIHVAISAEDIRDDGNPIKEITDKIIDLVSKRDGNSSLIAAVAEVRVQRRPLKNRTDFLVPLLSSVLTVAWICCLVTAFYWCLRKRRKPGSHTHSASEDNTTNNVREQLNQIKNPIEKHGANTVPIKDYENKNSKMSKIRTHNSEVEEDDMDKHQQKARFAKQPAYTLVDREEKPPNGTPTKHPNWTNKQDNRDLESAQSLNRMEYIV

| Molecule | inhibition of J1-induced luciferase activity ([1]; NE3-Fc and NE12-Fc, mAbs 10 μg/ml, DBZ 100 nM) | inhibition of J1-induced luciferase activity [1, 5] | repression of murine Hes1 expression [2] | Blocking of Notch1 binding to cell surface Jagged 1 [3, 6] | Blocking of Notch1 binding to cell surface Jagged 1 [3, 7] | Blocking of Notch1 binding to cell surface Jagged 1 [3, 8] | Blocking of Notch1 binding to cell surface Jagged 1 [3, 9] | spheroid growth inhibition (MDA-MB-231 spheroids) | % soluble aggregate [4] |
| --- | --- | --- | --- | --- | --- | --- | --- | --- | --- |
| C[C@H](NC(=O)Cc1cc(F)cc(F)c1)C(=O)N[C@@H]1C(=O)N(C)c2ccccc2-c2ccccc21 [DBZ, reference compound] | blocked | blocked | Repression of Hes1 expression was observed | – | – | – | – | – | – |
| J1-183D variant 1: humanised/de-immunised J1-183D: J1-183D_VL_1 + J1-183D_VH_1 (antibody, V domains shown) VH: QVQLVQSGAELKKPGASVKVSCKVSGYAFTDYAIHWIRQAPGQGLEWMGIINTYYGDSKYNQKFKDRVTMTVDKSTSTAYMELSSLRSEDTAVYYCARGYDGFAYWGQGTLVTVSSASTKGP VL: DIQMTQSPSSLSASVGDRVTITCRTSENIYSYLTWYQQKPGKAPKLLVYNAKILAAGVPSRFSGSGSGTDFTLTISSLQPEDFATYYCQHHYDIPWTFGGGTKLEIKRT | – | inhibited as effectively as by the parental murine mAb | – | X | + (Complete blocking) | + (Complete blocking) | + (Complete blocking) | most comparable efficacy to the original murine antibody | 3.65% |
| J1-183D variant 9: humanised/de-immunised J1-183D: J1-183D_VL_3 + J1-183D_VH_1 (antibody, V domains shown) VH: QVQLVQSGAELKKPGASVKVSCKVSGYAFTDYAIHWIRQAPGQGLEWMGIINTYYGDSKYNQKFKDRVTMTVDKSTSTAYMELSSLRSEDTAVYYCARGYDGFAYWGQGTLVTVSSASTKGP VL: DIQMTQSPSSLSASVGDRVTITCRTSENIYSYLTWYQQKPGKAPKLLIYNAKILDSGVPSRFSGSGSGTDFTLTISSLQPEDFATYYCQHHYDIPWTFGGGTKLEIKRT | – | inhibited as effectively as by the parental murine mAb | – | X | + (Complete blocking) | + (Complete blocking) | + (Complete blocking) | increasingly less effect | 3.49% |
| J1-183D variant 8: humanised/de-immunised J1-183D: J1-183D_VL_2 + J1-183D_VH_4 (antibody, V domains shown) VH: QVQLVQSGAEVKKPGASVKVSCKASGYTFTDYAIHWVRQAPGQGLEWMGIINTYYGDSKYAQKFQGRVTMTVDTSTSTAYMELSSLRSEDTAVYYCARGYDGFAYWGQGTLVTVSSASTKGP VL: DIQMTQSPSSLSASVGDRVTITCRTSENIYSYLTWYQQKPGKAPKLLIYNAKTLASGVPSRFSGSGSGTDFTLTISSLQPEDFATYYCQHHYDIPWTFGGGTKLEIKRT | – | inhibited as effectively as by the parental murine mAb | – | X | + (Complete blocking) | + (Complete blocking) | + (Complete blocking) | increasingly less effect | 0.93% |
